Experimental data as given in publication PMC10976588.

B1: N-acyl sphingosine amidohydrolase 2 (Asah2): Asah2-N444Q (protein)
parent chain: MAKRTFSTLEAFLIFLLVIMTVITVALLTLLFVTSGTIENHKDSGNHWFSTTLGSTTTQPPPITQTPNFPSFRNFSGYYIGVGRADCTGQVSDINLMGYGKNGQNARGLLTRLFSRAFILADPDGSNRMAFVSVELCMISQRLRLEVLKRLESKYGSLYRRDNVILSAIHTHSGPAGFFQYTLYILASEGFSNRTFQYIVSGIMKSIDIAHTNLKPGKIFINKGNVANVQINRSPSSYLLNPQSERARYSSNTDKEMLVLKLVDLNGEDLGLISWFAIHPVSMNNSNHFVNSDNMGYAAYLFEQEKNKGYLPGQGPFVAGFASSNLGDVSPNILGPHCVNTGESCDNDKSTCPNGGPSMCMASGPGQDMFESTHIIGRIIYQKAKELYASASQEVTGPVLAAHQWVNMTDVSVQLNATHTVKTCKPALGYSFAAGTIDGVSGLNITQGTTEGDPFWDTLRDQLLGKPSEEIVECQKPKPILLHSGELTIPHPWQPDIVDVQIVTVGSLAIAAIPGELTTMSGRRFREAIKKEFALYGMKDMTVVIAGLSNVYTHYITTYEEYQAQRYEAASTIYGPHTLSAYIQLFRDLAKAIATDTVANMSSGPEPPFFKNLIASLIPNIADRAPIGKHFGDVLQPAKPEYRVGEVVEVIFVGANPKNSAENQTHQTFLTVEKYEDSVADWQIMYNDASWETRFYWHKGILGLSNATIYWHIPDTAYPGIYRIRYFGHNRKQELLKPAVILAFEGISSPFEVVTT
B2: N-acyl sphingosine amidohydrolase 2 (Asah2): Fut2ΔISC (protein)
parent chain: MAKRTFSTLEAFLIFLLVIMTVITVALLTLLFVTSGTIENHKDSGNHWFSTTLGSTTTQPPPITQTPNFPSFRNFSGYYIGVGRADCTGQVSDINLMGYGKNGQNARGLLTRLFSRAFILADPDGSNRMAFVSVELCMISQRLRLEVLKRLESKYGSLYRRDNVILSAIHTHSGPAGFFQYTLYILASEGFSNRTFQYIVSGIMKSIDIAHTNLKPGKIFINKGNVANVQINRSPSSYLLNPQSERARYSSNTDKEMLVLKLVDLNGEDLGLISWFAIHPVSMNNSNHFVNSDNMGYAAYLFEQEKNKGYLPGQGPFVAGFASSNLGDVSPNILGPHCVNTGESCDNDKSTCPNGGPSMCMASGPGQDMFESTHIIGRIIYQKAKELYASASQEVTGPVLAAHQWVNMTDVSVQLNATHTVKTCKPALGYSFAAGTIDGVSGLNITQGTTEGDPFWDTLRDQLLGKPSEEIVECQKPKPILLHSGELTIPHPWQPDIVDVQIVTVGSLAIAAIPGELTTMSGRRFREAIKKEFALYGMKDMTVVIAGLSNVYTHYITTYEEYQAQRYEAASTIYGPHTLSAYIQLFRDLAKAIATDTVANMSSGPEPPFFKNLIASLIPNIADRAPIGKHFGDVLQPAKPEYRVGEVVEVIFVGANPKNSAENQTHQTFLTVEKYEDSVADWQIMYNDASWETRFYWHKGILGLSNATIYWHIPDTAYPGIYRIRYFGHNRKQELLKPAVILAFEGISSPFEVVTT
B3: basigin (Bsg): Bsg-N306Q (protein)
parent chain: MAAALLLALAFTLLSGQGACAAAGFLKAPLSQERWAGGSVVLHCEAVGSPIPEIQWWFEGNAPNDSCSQLWDGARLDRVHIHAAYRQHAASSLSVDGLTAEDTGTYECRASSDPDRNHLTRPPRVKWVRAQASVVVLEPGTIQTSVQEVNSKTQLTCSLNSSGVDIVGHRWMRGGKVLQEDTLPDLHTKYIVDADDRSGEYSCIFLPEPVGRSEINVEGPPRIKVGKKSEHSSEGELAKLVCKSDASYPPITDWFWFKTSDTGEEEAITNSTEANGKYVVVSTPEKSQLTISNLDVNVDPGTYVCNATNAQGTTRETISLRVRSRMAALWPFLGIVAEVLVLVTIIFIYEKRRKPDQTLDEDDPGAAPLKGSGTHMNDKDKNVRQRNAT
B4: basigin (Bsg): Fut2ΔISC (protein)
parent chain: MAAALLLALAFTLLSGQGACAAAGFLKAPLSQERWAGGSVVLHCEAVGSPIPEIQWWFEGNAPNDSCSQLWDGARLDRVHIHAAYRQHAASSLSVDGLTAEDTGTYECRASSDPDRNHLTRPPRVKWVRAQASVVVLEPGTIQTSVQEVNSKTQLTCSLNSSGVDIVGHRWMRGGKVLQEDTLPDLHTKYIVDADDRSGEYSCIFLPEPVGRSEINVEGPPRIKVGKKSEHSSEGELAKLVCKSDASYPPITDWFWFKTSDTGEEEAITNSTEANGKYVVVSTPEKSQLTISNLDVNVDPGTYVCNATNAQGTTRETISLRVRSRMAALWPFLGIVAEVLVLVTIIFIYEKRRKPDQTLDEDDPGAAPLKGSGTHMNDKDKNVRQRNAT
B5: Niemann–Pick type C intracellular cholesterol transporter 1 (Npc1): Npc1-N961Q (protein)
parent chain: MGAHHPALGLLLLLLCPAQVFSQSCVWYGECGIATGDKRYNCKYSGPPKPLPKDGYDLVQELCPGLFFDNVSLCCDIQQLQTLKSNLQLPLQFLSRCPSCFYNLMTLFCELTCSPHQSQFLNVTATEDYFDPKTQENKTNVKELEYFVGQSFANAMYNACRDVEAPSSNEKALGLLCGRDARACNATNWIEYMFNKDNGQAPFTIIPVFSDLSILGMEPMRNATKGCNESVDEVTGPCSCQDCSIVCGPKPQPPPPPMPWRIWGLDAMYVIMWVTYVAFLFVFFGALLAVWCHRRRYFVSEYTPIDSNIAFSVNSSDKGEASCCDPLGAAFDDCLRRMFTKWGAFCVRNPTCIIFFSLAFITVCSSGLVFVQVTTNPVELWSAPHSQARLEKEYFDKHFGPFFRTEQLIIQAPNTSVHIYEPYPAGADVPFGPPLNKEILHQVLDLQIAIESITASYNNETVTLQDICVAPLSPYNKNCTIMSVLNYFQNSHAVLDSQVGDDFYIYADYHTHFLYCVRAPASLNDTSLLHGPCLGTFGGPVFPWLVLGGYDDQNYNNATALVITFPVNNYYNDTERLQRAWAWEKEFISFVKNYKNPNLTISFTAERSIEDELNRESNSDVFTVIISYVVMFLYISLALGHIQSCSRLLVDSKISLGIAGILIVLSSVACSLGIFSYMGMPLTLIVIEVIPFLVLAVGVDNIFILVQTYQRDERLQEETLDQQLGRILGEVAPTMFLSSFSETSAFFFGALSSMPAVHTFSLFAGMAVLIDFLLQITCFVSLLGLDIKRQEKNHLDILCCVRGADDGQGSHASESYLFRFFKNYFAPLLLKDWLRPIVVAVFVGVLSFSVAVVNKVDIGLDQSLSMPNDSYVIDYFKSLAQYLHSGPPVYFVLEEGYNYSSRKGQNMVCGGMGCDNDSLVQQIFNAAELDTYTRVGFAPSSWIDDYFDWVSPQSSCCRLYNVTHQFCNASVMDPTCVRCRPLTPEGKQRPQGKEFMKFLPMFLSDNPNPKCGKGGHAAYGSAVNIVGDDTYIGATYFMTYHTILKTSADYTDAMKKARLIASNITETMRSKGSDYRVFPYSVFYVFYEQYLTIIDDTIFNLSVSLGSIFLVTLVVLGCELWSAVIMCITIAMILVNMFGVMWLWGISLNAVSLVNLVMSCGISVEFCSHITRAFTMSTKGSRVSRAEEALAHMGSSVFSGITLTKFGGIVVLAFAKSQIFEIFYFRMYLAMVLLGATHGLIFLPVLLSYIGPSVNKAKRHTTYERYRGTERERLLNF
B6: Niemann–Pick type C intracellular cholesterol transporter 1 (Npc1): Fut2ΔISC (protein)
parent chain: MGAHHPALGLLLLLLCPAQVFSQSCVWYGECGIATGDKRYNCKYSGPPKPLPKDGYDLVQELCPGLFFDNVSLCCDIQQLQTLKSNLQLPLQFLSRCPSCFYNLMTLFCELTCSPHQSQFLNVTATEDYFDPKTQENKTNVKELEYFVGQSFANAMYNACRDVEAPSSNEKALGLLCGRDARACNATNWIEYMFNKDNGQAPFTIIPVFSDLSILGMEPMRNATKGCNESVDEVTGPCSCQDCSIVCGPKPQPPPPPMPWRIWGLDAMYVIMWVTYVAFLFVFFGALLAVWCHRRRYFVSEYTPIDSNIAFSVNSSDKGEASCCDPLGAAFDDCLRRMFTKWGAFCVRNPTCIIFFSLAFITVCSSGLVFVQVTTNPVELWSAPHSQARLEKEYFDKHFGPFFRTEQLIIQAPNTSVHIYEPYPAGADVPFGPPLNKEILHQVLDLQIAIESITASYNNETVTLQDICVAPLSPYNKNCTIMSVLNYFQNSHAVLDSQVGDDFYIYADYHTHFLYCVRAPASLNDTSLLHGPCLGTFGGPVFPWLVLGGYDDQNYNNATALVITFPVNNYYNDTERLQRAWAWEKEFISFVKNYKNPNLTISFTAERSIEDELNRESNSDVFTVIISYVVMFLYISLALGHIQSCSRLLVDSKISLGIAGILIVLSSVACSLGIFSYMGMPLTLIVIEVIPFLVLAVGVDNIFILVQTYQRDERLQEETLDQQLGRILGEVAPTMFLSSFSETSAFFFGALSSMPAVHTFSLFAGMAVLIDFLLQITCFVSLLGLDIKRQEKNHLDILCCVRGADDGQGSHASESYLFRFFKNYFAPLLLKDWLRPIVVAVFVGVLSFSVAVVNKVDIGLDQSLSMPNDSYVIDYFKSLAQYLHSGPPVYFVLEEGYNYSSRKGQNMVCGGMGCDNDSLVQQIFNAAELDTYTRVGFAPSSWIDDYFDWVSPQSSCCRLYNVTHQFCNASVMDPTCVRCRPLTPEGKQRPQGKEFMKFLPMFLSDNPNPKCGKGGHAAYGSAVNIVGDDTYIGATYFMTYHTILKTSADYTDAMKKARLIASNITETMRSKGSDYRVFPYSVFYVFYEQYLTIIDDTIFNLSVSLGSIFLVTLVVLGCELWSAVIMCITIAMILVNMFGVMWLWGISLNAVSLVNLVMSCGISVEFCSHITRAFTMSTKGSRVSRAEEALAHMGSSVFSGITLTKFGGIVVLAFAKSQIFEIFYFRMYLAMVLLGATHGLIFLPVLLSYIGPSVNKAKRHTTYERYRGTERERLLNF

How the values were obtained:
[1] = JC-1 staining in organoids; conditions: glycan lost; control: WT organoids
[2] = MitoSOX staining in organoids; conditions: glycan lost; control: WT organoids
[3] = complex I, III, IV, V activity kits; conditions: glycan lost; control: WT organoids
[4] = Western blot, whole-cell lysate; conditions: glycan changed form; control: WT crypts
[5] = Western blot of Pink1, pS65-Ub, whole-cell lysate; conditions: glycan lost; control: WT organoids
[6] = Western blot of lysosome fractions after CCCP; conditions: glycan lost; control: WT organoids

Row | Protein | other: mitochondrial membrane potential [1] | other: mitochondrial ROS level [2] | expression_or_secretion [4] | further results
1 | B1 | decreases | increases |  | other: respiratory chain complex activity [3]: decreases
2 | B2 |  |  | no change | 
3 | B3 | no change | no change |  | 
4 | B4 |  |  | no change | 
5 | B5 | decreases | increases |  | other: mitophagy activation by CCCP [5]: no change; other: mitophagy, delivery of mitochondrial proteins to lysosomes [6]: decreases
6 | B6 |  |  | no change | 
